Source: PMC8376870, “Auto-inhibitory intramolecular S5/S6 interaction in the TRPV6 channel regulates breast cancer cell migration and invasion” (Communications Biology, 2021)

Target: T1, GST-G511-V540 (TRPV6 S5 fragment) (human, UniProt Q9H1D0 511-540)
T1 construct: also called S5 (G511-V540); source: E. coli, purified (GST beads)
Experiment: pull-down; purified His- or GST-tagged peptides from E. coli incubated together overnight at 4 °C, 50% beads (GST or Ni-NTA) added, washed with 1% NP-40, western blot
Conditions: both partners purified

T1 sequence (Q9H1D0 511-540): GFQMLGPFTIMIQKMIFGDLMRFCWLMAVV

binding result: binds
B1: His-MBP-A603-L632 (TRPV6 S6 fragment) (domain or fragment)
chain: not shown
notes: also called S6 (A603-L632); source: E. coli, purified (Ni-NTA beads)
